± gives the uncertainty stated by the source.
B1: RNA-binding E3 ubiquitin-protein ligase MEX3C, residues 325 to 391; numbered along this chain, Q5U5Q3 (parent)
chain: GQTTVQVRVPYRVVGLVVGPKGATIKRIQQQTHTYIVTPSRDKEPVFEVTGMPENVDRAREEIEMHI

Variants of: B1
Test: abundance fitness (aPCA) (normalised: wild type 0, dead -1); higher = more abundant; growth selection in yeast, the domain comes from the species named
Conditions: Homo sapiens

Variant	abundance fitness
GQTTVQVRVPYRVVGLVVGPKGATIKRIQQQTHTYIVTPSVDKEPVFEVTGMPENVDRAREEIEMHI	-0.088 ± 0.063
GQTTVQVRVPYRVVGLVVGPKGATIKRIQQQTHTYIVTPSMDKEPVFEVTGMPENVDRAREEIEMHI	-0.168 ± 0.078
GQTTVQVRVPYRVVGLVVGPKGATIKRIQQQTHTYIVTPSNDKEPVFEVTGMPENVDRAREEIEMHI	-0.058 ± 0.16
GQTTVQVRVPYRVVGLVVGPKGATIKRIQQQTHTYIVTPSGDKEPVFEVTGMPENVDRAREEIEMHI	-0.154 ± 0.037
GQTTVQVRVPYRVVGLVVGPKGATIKRIQQQTHTYIVTPSTDKEPVFEVTGMPENVDRAREEIEMHI	-0.021 ± 0.083
GQTTVQVRVPYRVVGLVVGPKGATIKRIQQQTHTYIVTPSHDKEPVFEVTGMPENVDRAREEIEMHI	-0.109 ± 0.14
GQTTVQVRVPYRVVGLVVGPKGATIKRIQQQTHTYIVTPSWDKEPVFEVTGMPENVDRAREEIEMHI	-0.245 ± 0.073
GQTTVQVRVPYRVVGLVVGPKGATIKRIQQQTHTYIVTPSPDKEPVFEVTGMPENVDRAREEIEMHI	0.071 ± 0.094
GQTTVQVRVPYRVVGLVVGPKGATIKRIQQQTHTYIVTPSIDKEPVFEVTGMPENVDRAREEIEMHI	-0.15 ± 0.17
GQTTVQVRVPYRVVGLVVGPKGATIKRIQQQTHTYIVTPSSDKEPVFEVTGMPENVDRAREEIEMHI	-0.047 ± 0.062
GQTTVQVRVPYRVVGLVVGPKGATIKRIQQQTHTYIVTPSLDKEPVFEVTGMPENVDRAREEIEMHI	-0.21 ± 0.06
GQTTVQVRVPYRVVGLVVGPKGATIKRIQQQTHTYIVTPSYDKEPVFEVTGMPENVDRAREEIEMHI	-0.212 ± 0.28
GQTTVQVRVPYRVVGLVVGPKGATIKRIQQQTHTYIVTPSKDKEPVFEVTGMPENVDRAREEIEMHI	0.019 ± 0.15
GQTTVQVRVPYRVVGLVVGPKGATIKRIQQQTHTYIVTPSRIKEPVFEVTGMPENVDRAREEIEMHI	-0.342 ± 0.14
GQTTVQVRVPYRVVGLVVGPKGATIKRIQQQTHTYIVTPSRGKEPVFEVTGMPENVDRAREEIEMHI	0.099 ± 0.04
GQTTVQVRVPYRVVGLVVGPKGATIKRIQQQTHTYIVTPSRMKEPVFEVTGMPENVDRAREEIEMHI	-0.128 ± 0.089
GQTTVQVRVPYRVVGLVVGPKGATIKRIQQQTHTYIVTPSRYKEPVFEVTGMPENVDRAREEIEMHI	-0.181 ± 0.1
GQTTVQVRVPYRVVGLVVGPKGATIKRIQQQTHTYIVTPSRVKEPVFEVTGMPENVDRAREEIEMHI	-0.465 ± 0.069
GQTTVQVRVPYRVVGLVVGPKGATIKRIQQQTHTYIVTPSRWKEPVFEVTGMPENVDRAREEIEMHI	-0.335 ± 0.088
GQTTVQVRVPYRVVGLVVGPKGATIKRIQQQTHTYIVTPSRSKEPVFEVTGMPENVDRAREEIEMHI	-0.332 ± 0.08

Variant	abundance fitness
GQTTVQVRVPYRVVGLVVGPKGATIKRIQQQTHTYIVTPSRKKEPVFEVTGMPENVDRAREEIEMHI	-0.139 ± 0.11
GQTTVQVRVPYRVVGLVVGPKGATIKRIQQQTHTYIVTPSRLKEPVFEVTGMPENVDRAREEIEMHI	-0.263 ± 0.066
GQTTVQVRVPYRVVGLVVGPKGATIKRIQQQTHTYIVTPSRPKEPVFEVTGMPENVDRAREEIEMHI	-1.01 ± 0.31
GQTTVQVRVPYRVVGLVVGPKGATIKRIQQQTHTYIVTPSRCKEPVFEVTGMPENVDRAREEIEMHI	-0.425 ± 0.12
GQTTVQVRVPYRVVGLVVGPKGATIKRIQQQTHTYIVTPSRAKEPVFEVTGMPENVDRAREEIEMHI	-0.292 ± 0.056
GQTTVQVRVPYRVVGLVVGPKGATIKRIQQQTHTYIVTPSRNKEPVFEVTGMPENVDRAREEIEMHI	-0.071 ± 0.1
GQTTVQVRVPYRVVGLVVGPKGATIKRIQQQTHTYIVTPSRHKEPVFEVTGMPENVDRAREEIEMHI	-0.191 ± 0.091
GQTTVQVRVPYRVVGLVVGPKGATIKRIQQQTHTYIVTPSRRKEPVFEVTGMPENVDRAREEIEMHI	-0.408 ± 0.052
GQTTVQVRVPYRVVGLVVGPKGATIKRIQQQTHTYIVTPSRFKEPVFEVTGMPENVDRAREEIEMHI	-0.198 ± 0.17
GQTTVQVRVPYRVVGLVVGPKGATIKRIQQQTHTYIVTPSRTKEPVFEVTGMPENVDRAREEIEMHI	-0.245 ± 0.078
GQTTVQVRVPYRVVGLVVGPKGATIKRIQQQTHTYIVTPSRQKEPVFEVTGMPENVDRAREEIEMHI	-0.122 ± 0.11
GQTTVQVRVPYRVVGLVVGPKGATIKRIQQQTHTYIVTPSRDLEPVFEVTGMPENVDRAREEIEMHI	-0.579 ± 0.081
GQTTVQVRVPYRVVGLVVGPKGATIKRIQQQTHTYIVTPSRDDEPVFEVTGMPENVDRAREEIEMHI	0.131 ± 0.078
GQTTVQVRVPYRVVGLVVGPKGATIKRIQQQTHTYIVTPSRDHEPVFEVTGMPENVDRAREEIEMHI	0.012 ± 0.093
GQTTVQVRVPYRVVGLVVGPKGATIKRIQQQTHTYIVTPSRDCEPVFEVTGMPENVDRAREEIEMHI	-0.1 ± 0.067
GQTTVQVRVPYRVVGLVVGPKGATIKRIQQQTHTYIVTPSRDAEPVFEVTGMPENVDRAREEIEMHI	0.058 ± 0.05
GQTTVQVRVPYRVVGLVVGPKGATIKRIQQQTHTYIVTPSRDIEPVFEVTGMPENVDRAREEIEMHI	-0.583 ± 0.14
GQTTVQVRVPYRVVGLVVGPKGATIKRIQQQTHTYIVTPSRDEEPVFEVTGMPENVDRAREEIEMHI	-0.191 ± 0.072
GQTTVQVRVPYRVVGLVVGPKGATIKRIQQQTHTYIVTPSRDGEPVFEVTGMPENVDRAREEIEMHI	0.108 ± 0.035
GQTTVQVRVPYRVVGLVVGPKGATIKRIQQQTHTYIVTPSRDFEPVFEVTGMPENVDRAREEIEMHI	-0.431 ± 0.13

Source: the Human Domainome abundance scans (Beltran et al. 2025)
